Measured values taken from IntAct's records for PubMed 29039417.

B1: Protein PTHB1 (Homo sapiens), Q3SYG4 (parent)
chain: MSLFKARDWWSTILGDKEEFDQGCLCLANVDNSGNGQDKIIVGSFMGYLRIFSPHPAKTGDGAQAEDLLLEVDLRDPVLQVEVGKFVSGTEMLHLAVLHSRKLCVYSVSGTLGNVEHGNQCQMKLMYEHNLQRTACNMTYGSFGGVKGRDLICIQSMDGMLMVFEQESYAFGRFLPGFLLPGPLAYSSRTDSFLTVSSCQQVESYKYQVLAFATDADKRQETEQQKLGSGKRLVVDWTLNIGEQALDICIVSFNQSASSVFVLGERNFFCLKDNGQIRFMKKLDWSPSCFLPYCSVSEGTINTLIGNHNNMLHIYQDVTLKWATQLPHIPVAVRVGCLHDLKGVIVTLSDDGHLQCSYLGTDPSLFQAPNVQSRELNYDELDVEMKELQKIIKDVNKSQGVWPMTEREDDLNVSVVVSPNFDSVSQATDVEVGTDLVPSVTVKVTLQNRVILQKAKLSVYVQPPLELTCDQFTFEFMTPDLTRTVSFSVYLKRSYTPSELEGNAVVSYSRPTDRNPDGIPRVIQCKFRLPLKLICLPGQPSKTASHKITIDTNKSPVSLLSLFPGFASQSDDDQVNVMGFHFLGGARITVLASKTSQRYRIQSEQFEDLWLITNELILRLQEYFEKQGVKDFACSFSGSIPLQEYFELIDHHFELRINGEKLEELLSERAVQFRAIQRRLLARFKDKTPAPLQHLDTLLDGTYKQVIALADAVEENQGNLFQSFTRLKSATHLVILLIALWQKLSADQVAILEAAFLPLQEDTQELGWEETVDAAISHLLKTCLSKSSKEQALNLNSQLNIPKDTSQLKKHITLLCDRLSKGGRLCLSTDAAAPQTMVMPGGCTTIPESDLEERSVEQDSTELFTNHRHLTAETPRPEVSPLQGVSE
partner: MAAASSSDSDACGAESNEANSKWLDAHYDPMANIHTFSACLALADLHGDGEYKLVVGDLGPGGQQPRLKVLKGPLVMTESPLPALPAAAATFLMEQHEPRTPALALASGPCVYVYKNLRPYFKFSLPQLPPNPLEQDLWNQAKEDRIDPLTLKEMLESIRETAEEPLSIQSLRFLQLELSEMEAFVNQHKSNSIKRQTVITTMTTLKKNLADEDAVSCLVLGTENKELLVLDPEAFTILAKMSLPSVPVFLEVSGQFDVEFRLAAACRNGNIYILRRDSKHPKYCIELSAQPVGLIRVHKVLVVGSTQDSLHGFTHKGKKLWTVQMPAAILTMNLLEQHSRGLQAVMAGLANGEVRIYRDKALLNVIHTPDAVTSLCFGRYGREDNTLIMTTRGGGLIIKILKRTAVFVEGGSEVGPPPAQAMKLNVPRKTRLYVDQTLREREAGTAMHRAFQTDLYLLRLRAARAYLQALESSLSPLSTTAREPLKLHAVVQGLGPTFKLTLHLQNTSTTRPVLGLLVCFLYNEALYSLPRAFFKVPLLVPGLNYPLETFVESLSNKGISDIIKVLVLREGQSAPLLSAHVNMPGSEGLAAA

Variants of: B1
Conditions: with bbs1_human BBS1, Q8NFJ9

Variant	effect of a mutation on the interaction
D696K	with no effect
D696E	with no effect
D696V	disrupting interaction strength
D696A	with no effect
L692K	with no effect
L692R	disrupting interaction strength
L692E	with no effect
L692A	with no effect
E663K	with no effect
E663A	with no effect
R656E	with no effect
R656K	with no effect
R656A	with no effect
L666E	with no effect
L666A	with no effect
L666K	with no effect
H651A	with no effect
H651E	with no effect
H651T	disrupting interaction strength
H651K	with no effect
Q672A	with no effect
Q672E	with no effect
Q672K	with no effect
L699K	disrupting interaction strength
L699E	with no effect

Variant	effect of a mutation on the interaction
L699A	with no effect
A675E	with no effect
A675K	with no effect
R674E	with no effect
R674P	disrupting interaction strength
R674K	with no effect
R674A	with no effect
I676E	with no effect
I676A	with no effect
I676K	with no effect
Q677A	with no effect
Q677Y	disrupting interaction strength
Q677K	with no effect
Q677E	with no effect
Q705K	with no effect
Q705M	disrupting interaction strength
Q705A	with no effect
Q705E	with no effect
G659E	with no effect
G659K	with no effect
G659A	with no effect
P691L	disrupting interaction strength
P691S	disrupting interaction strength
P691E	with no effect
P691K	with no effect

Variant	effect of a mutation on the interaction
P691A	with no effect
F673E	with no effect
F673K	with no effect
F673A	with no effect
H652E	with no effect
H652K	with no effect
H652A	with no effect
Q693A	with no effect
Q693K	with no effect
Q693E	with no effect
S667E	with no effect
S667A	with no effect
S667K	with no effect
S667F	disrupting interaction strength
E660K	with no effect
E660A	with no effect
L680E	with no effect
L680K	with no effect
L680A	with no effect
K685A	with no effect
K685E	with no effect
K704A	with no effect
K704E	with no effect
A682K	with no effect
A682E	with no effect

Variant	effect of a mutation on the interaction
R683K	with no effect
R683E	with no effect
R683A	with no effect
T702K	with no effect
T702A	with no effect
T702C	disrupting interaction strength
T702E	with no effect
T688K	disrupting interaction strength
T688A	with no effect
T688E	with no effect
E654G	disrupting interaction strength
E654K	with no effect
E654A	with no effect
K687A	with no effect
K687E	with no effect
F653K	with no effect
F653A	with no effect
F653E	with no effect
I707A	with no effect
L681A	with no effect
L681K	with no effect
L681E	with no effect
L698A	with no effect
L698E	with no effect
L698K	with no effect

Variant	effect of a mutation on the interaction
R669E	with no effect
R669K	with no effect
R669A	with no effect
A690K	disrupting interaction strength
A690E	with no effect
A690V	disrupting interaction strength
A690T	disrupting interaction strength
V671E	with no effect
V671A	with no effect
V671K	with no effect
R679E	with no effect
R679W	disrupting interaction strength
R679A	with no effect
R679K	with no effect
P689K	with no effect
P689A	with no effect
P689E	with no effect
H694E	with no effect
H694Y	disrupting interaction strength
H694A	with no effect
H694K	with no effect
D686A	with no effect
D686K	with no effect
D686E	with no effect
D700K	with no effect

Variant	effect of a mutation on the interaction
D700A	with no effect
D700E	with no effect
L662K	with no effect
L662E	with no effect
L662A	with no effect
V706K	with no effect
V706A	with no effect
V706E	with no effect
A670V	disrupting interaction strength
A670E	with no effect
A670K	with no effect
G701A	with no effect
G701E	disrupting interaction strength
G701R	disrupting interaction strength
G701K	with no effect
E664K	with no effect
E664A	with no effect
L695M	disrupting interaction strength
L695E	with no effect
L695A	with no effect
L695K	with no effect
N658K	with no effect
N658A	with no effect
N658E	with no effect
L665K	with no effect

Variant	effect of a mutation on the interaction
L665A	with no effect
L665E	with no effect
R678A	with no effect
R678K	with no effect
R678E	with no effect
Y703A	with no effect
Y703K	with no effect
Y703E	with no effect
K661A	with no effect
K661E	with no effect
L655E	with no effect
L655A	with no effect
L655K	with no effect
I657K	with no effect
I657A	with no effect
I657E	with no effect
E668A	with no effect
E668K	with no effect
T697E	with no effect
T697C	disrupting interaction strength
T697A	with no effect
T697K	with no effect
F684K	with no effect
F684E	with no effect
F684A	with no effect

Variants of: B1
Conditions: with bbs1_human BBS1, Q8NFJ9
Remark: another data set of the same source

Variant	effect of a mutation on the interaction
A690K	with no effect
